# Laboratory results reported in patent publication US20130174289A1, “Na+/Mg2+ Exchanger” (FBN - Leibnitz-Institut fur Nutztierbiologie, priority 2010, published 2013).
# Biological target: T1, SLC41A1 (Homo sapiens, UniProt Q8IVJ1)
# T1 construct: split-ubiquitin half (bait fusion); expressed in transfected cells
# Experiment: Split-ubiquitin screen for SLC41A1 complex-forming partners
# Assay type: binding
# Details: for occurrence: frequency of occurrence = number of clones that revealed interaction with SLC41A1
# Source text: These SLC41A1 complex-forming partners were screened out by the split-ubiquitin method, which is well known in the art and are listed in detail in Table 1. The ubiquitin-based split protein sensor (USPS) is the method that makes it possible to detect and monitor protein-protein interactions as a function of time, at the natural sites of these interactions in a living cell. Details on the method can be found in Johnsson and Varshaysky, 1994.
# In order to shorten the table, multiple entries were deleted and only the frequency of occurrence (Occurrence) is indicated as a number. The singletons listed in Table 2 are the weakest partners. They are organized from the strongest to the weakest.
# In the above tables 1 and 2 underlined names indicate highly connected proteins, found in the majority of DUALmembrane SU-YTH screens. Highly connected proteins include chaperones, stress-induced endoplasmatic reticulum proteins, components of the translocon machinery and proteins involved in membrane protein sorting and transport.
# T1 sequence (Q8IVJ1 whole entry, the tested form may be a part): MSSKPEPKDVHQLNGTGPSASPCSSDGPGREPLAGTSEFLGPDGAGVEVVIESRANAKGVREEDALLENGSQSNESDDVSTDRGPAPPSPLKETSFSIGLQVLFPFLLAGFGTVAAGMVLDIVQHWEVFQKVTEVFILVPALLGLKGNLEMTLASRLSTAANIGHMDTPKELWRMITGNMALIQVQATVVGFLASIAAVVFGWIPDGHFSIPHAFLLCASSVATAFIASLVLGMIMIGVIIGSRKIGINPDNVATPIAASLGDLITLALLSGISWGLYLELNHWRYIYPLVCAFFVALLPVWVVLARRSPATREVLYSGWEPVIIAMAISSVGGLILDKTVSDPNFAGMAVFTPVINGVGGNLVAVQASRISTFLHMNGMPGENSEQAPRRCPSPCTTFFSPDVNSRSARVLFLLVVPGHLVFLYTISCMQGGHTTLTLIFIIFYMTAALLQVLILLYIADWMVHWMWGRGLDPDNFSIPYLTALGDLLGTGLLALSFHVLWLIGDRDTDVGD
clones identified with interaction with SLC41A1 (split-ubiquitin screening),occurrence,Molecule
Ten,,B-cell receptor-associated protein 31 OS = Homo sapiens: SLC41A1 complex-forming partner from split-ubiquitin screen; GN = BCAP31 (protein) MSLQWTAVATFLYAEVFVVLLLCIPFISPKRWQKIFKSRLVELLVSYGNTFFVVLIVILVLLVIDAVREIRKYDDVTEKVNLQNNPGAMEHFHMKLFRAQRNLYIAGFSLLLSFLLRRLVTLISQQATLLASNEAFKKQAESASEAAKKYMEENDQLKKGAAVDGGKLDVGNAEVKLEEENRSLKADLQKLKDELASTKQKLEKAENQVLAMRKQSEGLTKEYDRLLEEHAKLQAAVDGPMDKKEE
,1,"3-beta-hydroxysteroid-Delta(8), Delta(7)-isomerase OS = Rattus norvegicus: SLC41A1 complex-forming partner from split-ubiquitin screen; GN = Ebp (protein, UniProt Q9JJ46 2-230, looked up) 3-beta-hydroxysteroid-Delta(8) …: TTNMLPLHPYWPRHLRLDNFVPNDLPTWHILVGLFSFSGVLIVITWLLSSRVSVVPLGTGRRLALCWFAVCTFIHLVIEGWFSFYHEILLEDQAFLSQLWKEYSKGDSRYILSDGFIVCMESVTACLWGPLSLWVVIAFLRHQPFRFVLQLVVSVGQIYGDVLYFLTELRDGFQHGELGHPLYFWFYFVIMNAIWLVIPGILVFDAIKHLTNAQSMLDNKVMKIKSKHN"
,2,"Protein YIPF6 OS = Homo sapiens: SLC41A1 complex-forming partner from split-ubiquitin screen; GN = YIPF6 (protein, UniProt Q96EC8 2-236, looked up) Protein YIPF6: AEAEESPGDPGTASPRPLFAGLSDISISQDIPVEGEITIPMRSRIREFDSSTLNESVRNTIMRDLKAVGKKFMHVLYPRKSNTLLRDWDLWGPLILCVTLALMLQRDSADSEKDGGPQFAEVFVIVWFGAVTITLNSKLLGGNISFFQSLCVLGYCILPLTVAMLICRLVLLADPGPVNFMVRLFVVIVMFAWSIVASTAFLADSQPPNRRALAVYPVFLFYFVISWMILTFTPQ"
